These results are taken from patent publication CN112794900A (2ND XIANGYA HOSPITAL CENTRAL SOUTH UNIV, dated 2021).

What is called EC50 is the concentration at which the effect is half-maximal. High values mean weaker potency, low ones greater potency.

The target in assay [1] is T1, cBIN1 Isoform II2 (cBIN1 exon1-13&18-20) (UniProt O00499-6 1-482).
T1 construct: domain: cBIN1 exon1-13&18-20; tags are unknown; also called 含有exon13的cBIN1 Isoform II2蛋白
T1 sequence (looked up): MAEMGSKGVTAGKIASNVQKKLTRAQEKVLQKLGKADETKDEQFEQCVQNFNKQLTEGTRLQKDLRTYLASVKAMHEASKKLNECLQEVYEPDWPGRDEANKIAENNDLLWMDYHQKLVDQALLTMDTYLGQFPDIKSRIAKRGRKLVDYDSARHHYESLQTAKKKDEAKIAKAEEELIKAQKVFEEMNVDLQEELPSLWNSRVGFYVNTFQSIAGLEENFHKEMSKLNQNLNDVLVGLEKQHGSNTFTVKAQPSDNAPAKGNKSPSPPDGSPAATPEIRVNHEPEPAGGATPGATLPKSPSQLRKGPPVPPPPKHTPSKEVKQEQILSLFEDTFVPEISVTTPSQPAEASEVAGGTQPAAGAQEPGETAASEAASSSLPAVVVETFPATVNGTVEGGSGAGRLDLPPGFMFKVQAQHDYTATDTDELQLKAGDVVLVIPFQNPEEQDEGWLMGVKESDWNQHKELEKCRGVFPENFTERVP
In words: ELISA, antigen coated at 0.1μg/well, OD450. In general terms: ELISA stands for enzyme-linked immunosorbent assay.

Assay [2] has as its target T2, cBIN1 Isoform II3 (cBIN1 exon 1-12&18-20) (UniProt O00499-7 1-439).
T2 construct: domain: cBIN1 exon 1-12&18-20; Tags are unknown; also called 缺失exon13的cBIN1 Isoform II3蛋白
T2 sequence (looked up): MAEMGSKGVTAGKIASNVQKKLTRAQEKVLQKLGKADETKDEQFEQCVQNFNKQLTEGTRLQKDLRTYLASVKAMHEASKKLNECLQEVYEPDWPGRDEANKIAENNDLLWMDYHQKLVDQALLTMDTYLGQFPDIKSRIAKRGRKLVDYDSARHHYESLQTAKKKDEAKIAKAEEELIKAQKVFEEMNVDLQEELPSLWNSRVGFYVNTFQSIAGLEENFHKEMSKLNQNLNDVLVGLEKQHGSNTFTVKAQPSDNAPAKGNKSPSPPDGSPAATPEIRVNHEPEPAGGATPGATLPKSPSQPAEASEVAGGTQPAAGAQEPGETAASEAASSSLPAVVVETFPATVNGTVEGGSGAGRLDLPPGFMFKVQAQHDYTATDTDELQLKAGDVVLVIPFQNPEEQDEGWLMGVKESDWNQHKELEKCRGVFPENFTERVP
In words: ELISA, antigen coated at 0.1μg/well.

B1: 鼠源抗体 8G1-D7-F5 (抗人源cBIN1 exon13抗体) (antibody, V domains shown)
VH: EVQLQQSGAELVRPGASVKLSCTTSGFNIKDSYMHWVKQRPEQGLEWIGRIDPEDDDAVYAPKFQDRATMTADTSSNTAYLHLSSLTSDDTAVYYCTTSTLVATPWFFDVWGTGTTVTVSS
VL: DIQMTQTTSSLSASLGDRVTISCSASQDINNYLNWYQQKPDGTVKLLIYYTSTLHSGVPSRFSGSGSGTDYSLTITNLEPEDFATYYCQQYTHNLPWTFGGGTKLEIK
notes: Mouse hybridoma antibody; The printed light chain FR3 may lack a leading G; also called cBIN1抗体
On to B1, for which, in assay [1], the EC50 is 0.058 µg/mL. Also, the binding result in assay [2] is “no binding (tested: 10μg/ml起始浓度, 三倍稀释, 11个检测点)”.
